In the DeepSol protein solubility set:

Assay: soluble on expression in E. coli; label from the status in PepcDB or PDB records

Row | Sequence | soluble on expression in E. coli
1 | MGSDKIHHHHHHMSHLALQPGFDFQQAGKEVLEIEREGLAELDQYINQHFTLACEKMFNCTGKVVVMGMGKSGHIGRKMAATFASTGTSSFFVHPGEAAHGDLGMVTPQDVVIAISNSGESSEIAALIPVLKRLHVPLICITGRPESSMARAADVHLCVKVPKEACPLGLAPTSSTTATLVMGDALAVALLKARGFTAEDFALSHPGGALGRKLLLRVSDIMHTGDEIPHVNKHATLRDALLEITRKNLGMTVICDESMKIDGIFTDGDLRRVFDMGGDMRQLGIAEVMTPGGIRVRPGILAVDALNLMQSRHITSVLVADGDQLLGVLHMHDLLRAGVV | not soluble
2 | MGSDKIHHHHHHMSHQSTHPHHTWVQSHHPVHLETKSPPHKEPMFYYFAYGSCMCPVDLKRSLGENTHPYIIGPGVLKGYRLGFYLYLPSRKCGVLDIVKDPKASVKGVLYQLPLRLSEYLDQREGVSQNLYRHESVEIHSHSRVYQDVRTYVVVNKSEEEVAPNDWYFNVVLRGAVTCGLPEEYCWHLFNHMHKLQQRHQEQKFRRSA | not soluble
3 | MGSDKIHHHHHHMSIAHQNAHTIIRDILSKQHIERVWFVGCGGSLTGFWPGKYFLDCEAKKLAVGYVTSNEFVHATPNALGKNSVVILASQQGNTAETVEAARIARQKGAATIGLVYTPGTPLCEHSDYTIKYCWARYPETVDPTQQKAAYSLWLALEVLAQTEGYAHYDEMVSAFASFESVVRGAQQQVQADARHFAEAWKTEKVIYMMGSGPSFGAAHQESICILLEMQWINSASIHSGEYFHGPFEITETGTPFILLKSSGRTRPLDDRAIRFIERYQGKLQIIDVEKVGINALHASVREYFCGLLHNCVLDVYNLALATARNHPLTTRRYMWKVEY | not soluble
4 | MGSDKIHHHHHHMSIQSLLDYISVTPDIRQQGKVKHKLSAILFLTVCAVIAGADEWQEIEDFGHERLEWLKKYGDFDNGIPVDDTIARVVSNIDSLAFEKMFIEWMQECHEITDGEIIAIDGKTIRGSFDKGKRKGAIHMVSAFSNENGVVLGQVKTEAKSNEITAIPELLNLLYLKKNLITIDAMGCQKDIASKIKDKKADYLLAVKGNQGKLHHAFEEKFPVNVFSNYKGDSFSTQEISHGRKETRLHIVSNVTPELL | not soluble
5 | MGSDKIHHHHHHMSISPNPNIAEIAALFGETSRAAILTSLLDGRLHTASDLAYRAGITPQTASFHLGKLAEGGLVSVEKHGRHRYYQLANGEVASLLESFLVISPQPEVKSLKQSAQMVMLQKARTCYDHLAGKLGVGITDSMLDSGYLKKDGKEFVLTEAGVQFVINFGLDLESIKKKRRSLSHACLDWSERSYHLAGALGNQLMQHFFDLGWITPLPGIRAVKVTDQGKAGFKQYFNISL | not soluble
6 | MGSDKIHHHHHHMSKSEQISHMTDVMAKFVGYTGKVLPDDVTAKLEDLHKKETSKLADVIFTTMIENQRLAKELDRPSCQDTGVIQFLVECGTNFPLIGELEALLREAVIKATVDSPLRHNSVETFDEYNTGKNVGKGTPTVFWEIVPNSDQCSIYTYMAGGGCSLPGKAMVLMPGAGYEGVTRFVLDVMTSYGLNACPPLLVGVGVATSVETAALLSKKALMRPIGSHNENERAASLEKMLEDGINKIGLGPQGMSGNTSVMGVNIENTARHPSTIGVAVNVGCWSHRKGHIVFDAALNYTITSHSGVNF | not soluble
7 | MGSDKIHHHHHHMSKWLNVGKIVNTHGVRGEVRVLSTTDFEDDRFSSGKTLYVMRPNQNERVAVTVASHRKHKNFDLLCFEGYPSINDVEAFKGGRLQVPIEDRPELGEGEFFYHEIIGCSVVTIAGEELGKVKEILSPGANDVWVVQCRRGGKDLLIPYIEQVVKQVDLEKQQITIEPMEGLLE | not soluble
8 | MGSDKIHHHHHHMSLIHLQADHIRPLVYLHGKVDDHEVAFLEHLNGPPKNAVRVGNTVTFIEHDQTAYSVRAERIQGVLPPAFAGVISDLESGYQFVLGGRSRLAGRPSQLVRIIPNDDNRYSYQVWLDMDTYLPLRYDMLNLEKQLLEQVLVVELIVLDDAPAILREAYKQDWPEIMPQPQREQADNWQFKWLPQGFKILVKDNHRLIGSHEAVEYIALSDGLVNISVYVARAGETALPDELMTRNGLSLAAERVGNAEVVAVGKVPAETLSRIAKSITIE | not soluble
9 | MGSDKIHHHHHHMSLPAQLRVLEVVQSLEKGGRTTRFTDTVAGLRAQKIFTVPLCISKPESWVSIPDLEVLHKTAGINWKLVFQIRKKIIKNNINLIHAHCEFSQLYASIAGVTCGIKTVATFHRSDLSKYQPNMVNKLIKLFASHFVAVSHDRLSLLTNNLKLPLNKCHVVHGGSVIEKKPTVTSINKARADLGIPLDQLMLLSIGHLGEIKGHQDTLVALSKFTKTMPALHLYIAGDGAAQEKQKLTELVNKLQINENVTFLGQINNAFSWLEACDIFIQPSVEEAFGLVFVEAGAKAKPVIATTVGGIKEIIVSKETGLLVLPSSPKAVEHALAILINSPPLRQQYGENGYKRITEHFSLTNMVNKYTDIFNQAVN | not soluble
10 | MGSDKIHHHHHHMSNTAQLITPSPIGLIADITELFEKTFAHFSRTLKVNADDIPEETMSFHTWSSIDNFPTLIQKYRDEYYGDNDLKPNDKALYSLWSQWYFGLIIPPMMLLLIEYPQTIDTHHKNFKVLFHHSGRPEVVYYQLKWQSQDPGTLLERYYLLLNHHVIPIAEKIESYQGINGRLLWNNIGYLMFWYLGEFKGRLGDDLYQSIINGLFMELSLPNGQDNPLYRTVMLRNGTLQRRSCCQRNKLPGVRSCHDCPLEKPPLNLIS | not soluble
11 | MGSDKIHHHHHHMSPHDAKSVIRRFVKEVLNDKNLAVIDEICPPDYVELDPLPGQGPGAAGLKAFLGESFFKAFPDLVWVNEEMVAEGEYVMARSTWTGTHRGEFLGIPPTHRAVKVAAWTIDHVVDGKFVDSRILVDALSLLQQLGALPAWPPPPKTFQAMVDAAYRSVPTIKAADLHRRLKREPDLLIIDVRDAAEVAQTGAIPGAINLSYGTLTYAADHTAPEDWRDPRLADHARPIVTTCGLGPLGALGGGLLHEMGFTNVQILEGGVQAWIDAGLPVVKPGDQ | not soluble
12 | MGSDKIHHHHHHMSPKVFVSHASEDKDRFVLQFAERLRQKGIDAWLDKWEMLPGDSLVDKIFEEGIKEAKAVIVVLSKFSVEKPWVREELNAAFVKRINNGSKLIPIVIDDCEVPEALKSTLWEPIADLSAYDKSFDRIVASIYGANDRPPIGPQPEYVQSFVQAIGNLNNIDSLVLRFSCEEVLKTGNAFVNPERVFLKDDKPILPEDELKDSLEILDGGGYIKLMRTLGGGFFPYQITTYGFDVYANASIPDYQGKIAAVVSAIVNEKLMSNAKIQERLKENKIIVDHILNVLENKGHIKQSKMIGGLSEIFNVSPSLKRALSGG | not soluble
13 | MGSDKIHHHHHHMSPNNFDTDVCIVGGGPTGTLLAVLLGQKGHRVTILEKWPTFYERPRAVTFDHEIARILGYIGIDSENDEAIDYHSDSYDWKNAAGETLLEVDWTSMTDSGWRTRYWFYQPELEKRLRDLALTMDFVDIRCGFTAVGLSQDENSAIIHGIVTDTPENIPADAQREDIRAKYVIGADGANSFVRNSLGLEMNDLGYFFDWLILDLKPTQDIDYGTDHWQLCDPKRPTTIVPGGPGRRRWEFMALPGEDLKELASEESAWNLLEPWDVTPGKAILERSAVYRFQARWAQEWRSGRALIAGDAAHLMPPFAGEGMCAGLRDSLALAWRLDLVLSGKSDDALLDTYGEERREHVHYYIDFSMDLGNVICITDEDEARLRDERMIKELEAQDGVPVNTDVAHLGPGIWDKDSSHGGELAKQGIVEYQGRKARFDDAVGRGWAVLGLNTDPREVLDEDSLVALDAIGAIVESVGDATSAVLDVEGLYTRWLKEAGATFIITRPDFYVYSTAVDAEQLQTQIKQLSDLLHLNSVVGA | not soluble
14 | MGSDKIHHHHHHMSPRPKQLSLELGSPPPSTFDNFVVASNREAVQRLHDLPSAVAQERAIDRLFYLWGENGCGRTHLLHAVCEATPQTGINCRYLSPHHPLSDFLFDPSCQLYTVDDVELLDEARQIAVFSLYNEVRAHVRTALVVAGGMAPRAMPVREDLRTRLGWGLVYQVQPLSDEDKMSAVLQAARERGLQLSPEITHWLVTRHYRDMPSLMALLDALDTYSLERKRPVTLPLLREMFAEFRE | not soluble
15 | MGSDKIHHHHHHMSQDDHSRDSAGLTYVYPVVSRRAGGVSIGINLNPNNACNWRCIYCQVPDLKRGTAPVIDLVRLEQELRDFLHELVYGNFMQEKVPPETRVIKDIALSGNGEPTSAREFEQIIEIIGRVKADFPLPEELKLVLITNGSLINRMYVQKGLHLMAGLNGEVWFKLDSVTQTGRLRINNTRASLQRMRDNLQTAASLCPTWLQTCVFKLKGVHPDTHETDAYIGFIRTLLQEGTQIRGVLLYTLARPALQPEAPDLSKADPDWIKTFADKIRALGIPVRTAF | not soluble
16 | MGSDKIHHHHHHMSQYSVTSSSVVKEKASELGFHKVGIAAVDSIDATEAQRLQAWIELGYHADMEWMANPKRQDIRLVMPEARSLVCVALNYYTPHQRPEGEEYAKISRYGWGRDYHKVMHKKLKQLSTWLESLDESVRVRYYADTGPVQDKVLAQLAGIGWIAKNGNVITREYGSWVFLGEVLTNLELESDRPHTEHCGSCTRCLQACPTSAITQPFIVDANRCIAYHTIENRDEKLPQTLTSHLQGWVAGCDICQDVCPWNQRFASTTDIPEFQPYPGNIAPKLLELAQISDQEWNKRFPASALRRIKPEMLRRNALANLDASRQIMTPKVIIFDFDGTIADTVDALVSIANRLAVDFGYRHISPEQLSLLKNLTSREIIKYSGVSLFKIPFLVKKVKGELKNKIPELKPIPGIKEALIELQNKGYKLGIITSNSKDNVTQFLTINDLNHLFDFIYSGITIFGKTTIINNVLRQNQLQPQEVIYVGDETRDIEASKKANIQVIAVAWGFNSSEVLAKQNPDYLIQQPSELLEVMNGY | not soluble
17 | MGSDKIHHHHHHMSRAERLIELMITINAKRSFTAGELAEEFSVSKRTILRDLQVLESIGFPLYSKVGAAGGYHVLKERILPPIAFSESEVKSIFFAYQSLEYYNDLPFEQETISVLKKFLNCIPNDIQYNIENIRRKFVFWTPDRHCSTPLLKELFNIVMNEFTIKIEYSSKQKNSVRTIVPIGLYAMNGLWYCPAYCIKSESIKEFRVDRIVKILSIENLSSKKYKVLSSIHDYLKNMEVGTDYHIKINLTDEGVKRCETEFLLARGLKILSKGGYIDMYIPKSTLNWVAEYFLTFGKNATIIEPIELKHLIKSKVLELYNHHCI | not soluble
18 | MGSDKIHHHHHHMSRSDARICAIHQPNFFPWLGYFDKIVRADIFVLLDDVQYQKTGGNWTNRVQMMIGQGPKWVTAPVDRSYSGVRQIREIRFSPVEREWREKLCSTITASYGRAAYFREVYPFIEPIIMNDSDFLSDYNSHAIAALCDYLEIESSKLVRSSQFNLQNNATDLLIDITKAVGAVRYLCGGGAQGYQEDEKFPRHGIQLIYQNFCHPIYTQANDAPFQPGLSIVDALMHCGRRGVIELLNRK | not soluble
19 | MGSDKIHHHHHHMSRVGFTTSIPVEVILAAGKTPVDLNNVFINSLSPQSMVDLAEEEGYPRNCCGWIKGLYATSLNYDMEALIAVMHGDCSNTQALMETLQLRNKKIIPFAFPFDRERSQLEAQVDKLMQFFEVDMEEVLKARARLEKIRSLCRELDRMTWRDNLVTGQENHYYLLCSSDFNGNPAEFEAELHSFVEEAGKRRPIQEEVRLAYIGVPPIFTDLHQLLELMGARVVFNEVQRQFSMPVESSDIIEQYLHYTYPYGAFARLEDIEEQLAVRDVQGVIHYTQTFCFRQIEDLIFRERLKIPFLTLEGDRPGKVDARSRMRLESFVSMLKK | not soluble
